Ends that are not written are not given here.
What was measured:
Test in all cases: cyclic peptide substitution array
ApoC3 peptide D66L = molecular target: T1, ApoC3 peptide D66L (human, not fully specified; cyclic (thioether))
T1 peptide: DKFSEFWLLDPEV
Method in brief: (§1)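 Peptide microarrays incubated with antibody samples, then stained with goat anti-human IgG (Fc) DyLight680 and anti-HA DyLight800 control antibodies, scanned at intensity 7/7 (red/green). Secondary-only pre-stain checked background binding; framing HA peptides served as quality control; substitution effects read as changes in spot intensity.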

ApoC3 peptide D59R = molecular target: T2, ApoC3 peptide D59R (human, thioether (positions not given here); not fully specified (C-terminus, bridges); also: cyclised via thioether between a C-terminal Cys and a modified N-terminus, the Cys and the N-terminal …)
T2 peptide: RKFSEFWDLDPEV
Method in brief: as §1

ApoC3 peptide S62G = molecular target: T3, ApoC3 peptide S62G (human, not fully specified; cyclic (thioether))
T3 peptide: DKFGEFWDLDPEV
Method in brief: as §1

ApoC3 peptide E70L = molecular target: T4, ApoC3 peptide E70L (human, cyclic (thioether))
T4 peptide: DKFSEFWDLDPLV
Method in brief: as §1

ApoC3 peptide W65I = molecular target: T5, ApoC3 peptide W65I (human, cyclic (thioether))
T5 peptide: DKFSEFIDLDPEV
Method in brief: as §1

ApoC3 peptide P69F = molecular target: T6, ApoC3 peptide P69F (human, not fully specified; cyclic (thioether))
T6 peptide: DKFSEFWDLDFEV
Method in brief: as §1

ApoC3 peptide F64Q = molecular target: T7, ApoC3 peptide F64Q (human, thioether (positions not given here); not fully specified (bridges); also: cyclic (thioether), positions not given here)
T7 peptide: DKFSEQWDLDPEV
Method in brief: as §1

ApoC3 peptide E70H = molecular target: T8, ApoC3 peptide E70H (human, cyclic (thioether))
T8 peptide: DKFSEFWDLDPHV
Method in brief: as §1

ApoC3 peptide D68F = molecular target: T9, ApoC3 peptide D68F (human, cyclic (thioether))
T9 peptide: DKFSEFWDLFPEV
Method in brief: as §1

ApoC3 peptide E70Q = molecular target: T10, ApoC3 peptide E70Q (human, cyclic (thioether))
T10 peptide: DKFSEFWDLDPQV
Method in brief: as §1

ApoC3 peptide E70D = molecular target: T11, ApoC3 peptide E70D (human, cyclic (thioether))
T11 peptide: DKFSEFWDLDPDV
Method in brief: as §1

ApoC3 peptide W65K = molecular target: T12, ApoC3 peptide W65K (human, cyclic (thioether))
T12 peptide: DKFSEFKDLDPEV
Method in brief: as §1

ApoC3 peptide K60Q = molecular target: T13, ApoC3 peptide K60Q (human, cyclic (thioether))
T13 peptide: DQFSEFWDLDPEV
Method in brief: as §1

ApoC3 peptide S62M = molecular target: T14, ApoC3 peptide S62M (human, thioether (positions not given here); also: cyclic (thioether), ring places not given here)
T14 peptide: DKFMEFWDLDPEV
Method in brief: as §1

ApoC3 peptide D66F = molecular target: T15, ApoC3 peptide D66F (human, not fully specified; cyclic (thioether))
T15 peptide: DKFSEFWFLDPEV
Method in brief: as §1

ApoC3 peptide F61P = molecular target: T16, ApoC3 peptide F61P (human, cyclic (thioether))
T16 peptide: DKPSEFWDLDPEV
Method in brief: as §1

ApoC3 peptide F64W = molecular target: T17, ApoC3 peptide F64W (human, thioether (positions not given here); not fully specified (bridges); also: cyclic (thioether), positions not given here)
T17 peptide: DKFSEWWDLDPEV
Method in brief: as §1

[1] = molecular target: T18, wild-type ApoC3 peptide DKFSEFWDLDPEV (human, cyclic (thioether))
T18 construct: 13 aa cyclic constrained peptide
T18 peptide: DKFSEFWDLDPEV
Method in brief: as §1

ApoC3 peptide D59E = molecular target: T19, ApoC3 peptide D59E (human, thioether (positions not given here); not fully specified (C-terminus, bridges))
T19 peptide: EKFSEFWDLDPEV
Method in brief: as §1

ApoC3 peptide V71E = molecular target: T20, ApoC3 peptide V71E (human, thioether (positions not given here); also: cyclic (thioether), ring places not given here)
T20 peptide: DKFSEFWDLDPEE
Method in brief: as §1

ApoC3 peptide E70R = molecular target: T21, ApoC3 peptide E70R (human, cyclic (thioether))
T21 peptide: DKFSEFWDLDPRV
Method in brief: as §1

ApoC3 peptide K60C = molecular target: T22, ApoC3 peptide K60C (human, thioether (positions not given here); not fully specified (bridges); also: cyclic (thioether), positions not given here)
T22 peptide: DCFSEFWDLDPEV
Method in brief: as §1

ApoC3 peptide S62I = molecular target: T23, ApoC3 peptide S62I (human, thioether (positions not given here); also: cyclic (thioether), ring places not given here)
T23 peptide: DKFIEFWDLDPEV
Method in brief: as §1

ApoC3 peptide D66M = molecular target: T24, ApoC3 peptide D66M (human, not fully specified; cyclic (thioether))
T24 peptide: DKFSEFWMLDPEV
Method in brief: as §1

ApoC3 peptide E70F = molecular target: T25, ApoC3 peptide E70F (human, cyclic (thioether))
T25 peptide: DKFSEFWDLDPFV
Method in brief: as §1

ApoC3 peptide P69Q = molecular target: T26, ApoC3 peptide P69Q (human, not fully specified; cyclic (thioether))
T26 peptide: DKFSEFWDLDQEV
Method in brief: as §1

ApoC3 peptide D59G = molecular target: T27, ApoC3 peptide D59G (human, thioether (positions not given here); not fully specified (C-terminus, bridges))
T27 peptide: GKFSEFWDLDPEV
Method in brief: as §1

ApoC3 peptide P69I = molecular target: T28, ApoC3 peptide P69I (human, not fully specified; cyclic (thioether))
T28 peptide: DKFSEFWDLDIEV
Method in brief: as §1

ApoC3 peptide E70G = molecular target: T29, ApoC3 peptide E70G (human, cyclic (thioether))
T29 peptide: DKFSEFWDLDPGV
Method in brief: as §1

ApoC3 peptide F61K = molecular target: T30, ApoC3 peptide F61K (human, cyclic (thioether))
T30 peptide: DKKSEFWDLDPEV
Method in brief: as §1

ApoC3 peptide F64K = molecular target: T31, ApoC3 peptide F64K (human, thioether (positions not given here); not fully specified (bridges); also: cyclic (thioether), positions not given here)
T31 peptide: DKFSEKWDLDPEV
Method in brief: as §1

B1: Llama antibody 5E5 (antibody, V domains shown)
VH: QLQLVESGGGLVQPGGSLRLSCAASGFTFGTYSMRWVRQVPRKALEWVSSISTDGGGTAYRDSVKGRFTISRDNAKNTLYLQMNNLKPEDTAIYYCVIAGYSDWGQGTQVTVSS
VL: ATMLTQSPGSLSVVPGESASISCKTSQGLVHSDGKTYFYWFLQKPGQSPQQLIYQVSNRASGVPDRFTGSGSGTDFTLKISGVKAEDAGVYYCAQGTYYPHTFGSGTRLEIK
notes: detected with goat anti-human IgG (Fc); also called mAb 5E5
% of binding to wild-type peptide (ApoC3 peptide D66L): 0% | % of binding to wild-type peptide (ApoC3 peptide D59R): 43.3% | % of binding to wild-type peptide (ApoC3 peptide S62G): 0.88% | % of binding to wild-type peptide (ApoC3 peptide E70L): 59.1% | % of binding to wild-type peptide (ApoC3 peptide W65I): 0% | % of binding to wild-type peptide (ApoC3 peptide P69F): 11.6% | % of binding to wild-type peptide (ApoC3 peptide F64Q): 130% | % of binding to wild-type peptide (ApoC3 peptide E70H): 50.5% | % of binding to wild-type peptide (ApoC3 peptide D68F): 0% | % of binding to wild-type peptide (ApoC3 peptide E70Q): 68% | % of binding to wild-type peptide (ApoC3 peptide E70D): 82.9% | % of binding to wild-type peptide (ApoC3 peptide W65K): 0% | % of binding to wild-type peptide (ApoC3 peptide K60Q): 178% | % of binding to wild-type peptide (ApoC3 peptide S62M): 0% | % of binding to wild-type peptide (ApoC3 peptide D66F): 0% | % of binding to wild-type peptide (ApoC3 peptide F61P): 52.7% | % of binding to wild-type peptide (ApoC3 peptide F64W): 88.5% | % of binding to wild-type peptide [1]: 100% | % of binding to wild-type peptide (ApoC3 peptide D59E): 128% | % of binding to wild-type peptide (ApoC3 peptide V71E): 127% | % of binding to wild-type peptide (ApoC3 peptide E70R): 35.8% | % of binding to wild-type peptide (ApoC3 peptide K60C): 67.2% | % of binding to wild-type peptide (ApoC3 peptide S62I): 0.64% | % of binding to wild-type peptide (ApoC3 peptide D66M): 0% | % of binding to wild-type peptide (ApoC3 peptide E70F): 40.1% | % of binding to wild-type peptide (ApoC3 peptide P69Q): 24.3% | % of binding to wild-type peptide (ApoC3 peptide D59G): 60.3% | % of binding to wild-type peptide (ApoC3 peptide P69I): 48% | % of binding to wild-type peptide (ApoC3 peptide E70G): 46.1% | % of binding to wild-type peptide (ApoC3 peptide F61K): 13.5% | % of binding to wild-type peptide (ApoC3 peptide F64K): 114%
